Patent publication US20250195677A1

Molecular target: recombinant His-tagged cynomolgus PD-1 (Acro Biosystems) (cynomolgus) (UniProt B0LAJ3)
Assay: SPR Carterra LSA, antibody coupled

recombinant His-tagged cynomolgus PD-1 (Acro Biosystems) (cynomolgus), sequence (B0LAJ3 entry or part of it limits assumed): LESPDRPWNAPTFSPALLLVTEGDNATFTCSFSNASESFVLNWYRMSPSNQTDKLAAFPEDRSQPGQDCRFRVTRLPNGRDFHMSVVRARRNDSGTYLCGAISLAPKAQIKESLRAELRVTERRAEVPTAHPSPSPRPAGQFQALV

Row | Substance | Kd [nM]
1 | KEYTRUDA® (pembrolizumab) (antibody) | 0.575
2 | OPDIVO® (nivolumab) (antibody) | 6.4
